Reference: patent US20050164345A1, “Synthesis of human procollagens and collagens in recombinant DNA systems” (priority 1992, published 2005)

Assays:
Format in all cases: physicochemical
[1] = protease digestion and thermal stability of recombinant type II human collagen from insect cells; details: expressed in recombinant insect cells
Method: Purification and analysis of Collagen Types I and II. Collagens types I and II were purified as described supra.
The thermal stability of the recombinant type II human collagen expressed from the recombinant insect cells was measured and compared with native type I human collagen. […] The Tm of the recombinant type II collagen was up to about 40° C.

[2] = CD spectrum analysis of purified recombinant type III collagen
Method: Type III procollagen was expressed in High Five cells cultured either as monolayers or in suspension in shaker flasks. The cells were harvested 72 h after infection, homogenized in a buffer containing 0.1% Triton X-100 and centrifuged, and the supernatant of the cell homogenate was passed through a DEAE cellulose column to remove nucleic acids. The flow through fractions containing the type III procollagen were pooled and digested with pepsin. This converted the type III procollagen to type III collagen and digested most of the noncollagenous proteins. The type III collagen was then concentrated by salt precipitation, solubilized and treated with pepsin as above. The type III collagen was finally separated from pepsin and other remaining contaminants by gel filtration on a Sephacryl S 500-HR column. The fractions containing the type III collagen were pooled, dialyzed and lyophilized. The purified type III collagen was analyzed by 5% SDS-PAGE under reducing (FIG. 9, lane 2) and nonreducing (FIG. 9, lane 3) conditions. […] Amino acid and CD spectrum analysis were performed on the purified type III collagen. The amino acid composition of the recombinant type III obtained corresponded well with the amino acid composition reported for human type III collagen. […] The melting temperature of the recombinant type III collagen determined by CD spectrum analysis was 40° C.

[3] = thermal stability of type III collagen produced in insect cells, trypsin/chymotrypsin digestion after heating to various temperatures
Method: Other aliquots were studied by a radioimmuno-assay for the trimeric N-propeptide of human type III procollagen (Farmos Diagnostica) and a colorimetric method for 4-hydroxyproline (Kivirikko et al., Anal. Biochem. 19: 249-255 (1967)). Still further aliquots were digested with pepsin for 1 h at 22° C. (Bruckner et al., Anal. Biochem. 110: 360-368 (1981)), and the thermal stability of the pepsin-resistant recombinant type III collagen was measured by rapid digestion with a mixture of trypsin and chymotrypsin.
The thermal stability of the type III collagen expressed under different cell culture conditions was studied by using digestion with a mixture of trypsin and chymotrypsin after heating to various temperatures (Bruckner, et al., Anal. Biochem. 110: 360-368 (1981)). High Five cells were infected with viruses coding for the proα1 (III) chains and the a and β subunits of human prolyl 4-hydroxylase. The cells were harvested 72 h after infection, homogenized in a buffer containing 0.2% Triton X-100 and centrifuged. In these experiments, ascorbate was either added daily to the cell culture medium as usual or omitted during the infection. The Triton X-100 soluble proteins were first digested with pepsin for 1 h at 22° C. to convert type III procollagen to type III collagen (Pihlajaniemi et al., EMBO J. 6: 643-649 (1987)), and the trypsin/chymotrypsin digestion was then performed for aliquots of the pepsin-treated samples. The samples were then electrophoresed on 8% SDS-PAGE and analyzed by Coomassie staining. FIG. 11 provides the results of this thermal stability for a variety of collagen products. As set forth in panel A, the cells were infected only with the virus coding for the proα1 (III) chains, and ascorbate was omitted from the culture medium; panel B, the cells were infected only with the virus coding for the proα1 (III) chains, and ascorbate was present in the culture medium as usually; panel C, the cells were coinfected with viruses coding for the proα1 (III) chains, and the α and β subunits of prolyl 4-hydroxylase, but ascorbate was omitted from the culture medium; and panel D, the cells were infected with the three viruses, and ascorbate was present in the culture medium. […] The arrows show the position of the α1 (III) chains. […] (FIG. 11A). […] In contrast, when the proα1 (III) chains were produced in the presence of both prolyl 4-hydroxylase and ascorbate, the Tm of type III collagen was increased considerably, being at about 38-40° C. (FIG. 11D).

## recombinant type II collagen: recombinant type II human collagen expressed from recombinant insect cells
[1]
  Tm of the recombinant type II collagen: up to 40 °C
  trypsin and chymotrypsin digestion: resistance to trypsin and chymotrypsin digestion

## recombinant type III collagen: recombinant human type III collagen produced in insect cells, pepsin-converted from type III procollagen
[2]; purified human type III collagen produced in insect cells
  Tm of the triple helices by CD spectra compared with authentic type III collagen: virtually identical
[2]; purified type III collagen from High Five cells
  melting temperature determined by CD spectrum analysis: 40 °C
[3]; High Five cells, either ascorbate or prolyl 4-hydroxylase present without the other (FIG. 11B and 11C)
  effect on the thermal stability: virtually no increasing effect
[3]; High Five cells, proα1 (III) chains expressed without prolyl 4-hydroxylase and ascorbate (FIG. 11A)
  Tm of type III collagen: 32-34 °C
[3]; High Five cells, proα1 (III) chains produced in the presence of both prolyl 4-hydroxylase and ascorbate (FIG. 11D)
  Tm of type III collagen: 38-40 °C

B1: proα1 chains of type III procollagen: type III procollagen expressed in insect cells without recombinant prolyl 4-hydroxylase (protein, UniProt P02461 24-1466, looked up)
pro-form: QQEAVEGGCSHLGQSYADRDVWKPEPCQICVCDSGSVLCDDIICDDQELDCPNPEIPFGECCAVCPQPPTAPTRPPNGQGPQGPKGDPGPPGIPGRNGDPGIPGQPGSPGSPGPPGICESCPTGPQNYSPQYDSYDVKSGVAVGGLAGYPGPAGPPGPPGPPGTSGHPGSPGSPGYQGPPGEPGQAGPSGPPGPPGAIGPSGPAGKDGESGRPGRPGERGLPGPPGIKGPAGIPGFPGMKGHRGFDGRNGEKGETGAPGLKGENGLPGENGAPGPMGPRGAPGERGRPGLPGAAGARGNDGARGSDGQPGPPGPPGTAGFPGSPGAKGEVGPAGSPGSNGAPGQRGEPGPQGHAGAQGPPGPPGINGSPGGKGEMGPAGIPGAPGLMGARGPPGPAGANGAPGLRGGAGEPGKNGAKGEPGPRGERGEAGIPGVPGAKGEDGKDGSPGEPGANGLPGAAGERGAPGFRGPAGPNGIPGEKGPAGERGAPGPAGPRGAAGEPGRDGVPGGPGMRGMPGSPGGPGSDGKPGPPGSQGESGRPGPPGPSGPRGQPGVMGFPGPKGNDGAPGKNGERGGPGGPGPQGPPGKNGETGPQGPPGPTGPGGDKGDTGPPGPQGLQGLPGTGGPPGENGKPGEPGPKGDAGAPGAPGGKGDAGAPGERGPPGLAGAPGLRGGAGPPGPEGGKGAAGPPGPPGAAGTPGLQGMPGERGGLGSPGPKGDKGEPGGPGADGVPGKDGPRGPTGPIGPPGPAGQPGDKGEGGAPGLPGIAGPRGSPGERGETGPPGPAGFPGAPGQNGEPGGKGERGAPGEKGEGGPPGVAGPPGGSGPAGPPGPQGVKGERGSPGGPGAAGFPGARGLPGPPGSNGNPGPPGPSGSPGKDGPPGPAGNTGAPGSPGVSGPKGDAGQPGEKGSPGAQGPPGAPGPLGIAGITGARGLAGPPGMPGPRGSPGPQGVKGESGKPGANGLSGERGPPGPQGLPGLAGTAGEPGRDGNPGSDGLPGRDGSPGGKGDRGENGSPGAPGAPGHPGPPGPVGPAGKSGDRGESGPAGPAGAPGPAGSRGAPGPQGPRGDKGETGERGAAGIKGHRGFPGNPGAPGSPGPAGQQGAIGSPGPAGPRGPVGPSGPPGKDGTSGHPGPIGPPGPRGNRGERGSEGSPGHPGQPGPPGPPGAPGPCCGGVGAAAIAGIGGEKAGGFAPYYGDEPMDFKINTDEIMTSLKSVNGQIESLISPDGSRKNPARNCRDLKFCHPELKSGEYWVDPNQGCKLDAIKVFCNMETGETCISANPLNVPRKHWWTDSSAEKKHVWFGESMDGGFQFSYGNPELPEDVLDVHLAFLRLLSSRASQNITYHCKNSIAYMDQASGNVKKALKLMGSNEGEFKAEGNSKFTYTVLEDGCTKHTGEWSKTVFEYRTRKAVRLPIVDIAPYDIGGPDQEFGVDVGPVCFL
modifications: pro-form
notes: type III procollagen expressed in insect cells without recombinant prolyl 4-hydroxylase
[3]; insect cells, without recombinant prolyl 4-hydroxylase
  Tm of the triple helices, lower than procollagen produced in the presence of recombinant prolyl 4-hydroxylase: about 6 °C
